Results on 3 molecules are retold here after patent US11634497B2, “Anti-CCR7 antibody drug conjugates” (NOVARTIS AG, priority 2017, dated 2023).

Common to all, as to assay type: cell-based
In test [1] the target is T1, hCCR7 (CHO-flpin-hCCR7 cells) (Homo sapiens, UniProt P32248).
T1 construct: host or cells: CHO (CHO-flpin), doxycycline-induced
T1 sequence (P32248 25-378): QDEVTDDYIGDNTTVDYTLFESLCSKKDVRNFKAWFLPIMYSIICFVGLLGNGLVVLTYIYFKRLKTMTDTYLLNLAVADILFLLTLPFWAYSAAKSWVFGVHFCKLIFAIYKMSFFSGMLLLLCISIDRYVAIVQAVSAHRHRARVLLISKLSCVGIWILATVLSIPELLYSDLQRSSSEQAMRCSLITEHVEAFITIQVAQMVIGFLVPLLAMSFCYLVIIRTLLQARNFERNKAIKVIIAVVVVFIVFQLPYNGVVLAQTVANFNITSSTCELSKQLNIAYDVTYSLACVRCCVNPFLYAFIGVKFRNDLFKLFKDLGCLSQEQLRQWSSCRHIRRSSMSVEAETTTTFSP
Briefly: β-Arrestin assay (PathHunter), antagonistic mode. Particulars: parental anti-CCR7 antibodies; hCCL19 as ligand; FIGS. 4B, 4C. As to the method:
To determine functionality of the anti-CCR7 antibodies, the β-Arrestin assay was performed using the PathHunter Flash Detection Kit from DiscoverX (#93-0247) either in agonistic mode for assessment of agonistic function or antagonistic mode for assessment of antagonistic function.
In the antagonistic mode, CHO-flpin-hCCR7 cells were seeded as described above. The next day, a 6× working solution (0.5 μM×6=3.0 μM) in 1× assay buffer was made for each test antibody or positive control MAB197 (R&D reference antibody; ligand antagonist) or negative control hIgG. 5 μl of the 6× working solution of antibodies or controls were added to each well, briefly spun down, and incubated at 37° C./5% CO2 for 30 min. During incubation, serial dilutions of a 6× working solution in 1× assay buffer were made for hCCL19. Following incubation, 5 μl of the 6× working solution of hCCL19 were added to each well, briefly spun down, and incubated at 37° C./5% CO2 for 90 min. Following incubation, 25 μl of detection reagent were added to each well, incubated at room temperature in the dark while shaking for 20 min. Then, the luminescence signal for enzyme activity was measured on the Envision machine and analyzed in Excel.

The next test deals with DEL. Briefly: ADC cell viability assay (CellTiter-Glo, four days). Particulars: DEL (ALCL); CCR7 receptor levels ~100,000; Table 19. The protocol: (§1) Cytotoxic effects after binding of directly conjugated antibodies (ADCs) with various payloads and their internalization into CCR7(+) cells were studied by assessing cell viability after four days of treatment. Three fold dilutions of the ADCs were added to 384-well bottom white plates in triplicates ([…]). […] Cells were harvested (adherent cells were detached with Accutase) and resuspended to approximately 2×10^4cells/ml. Cells were added to 384-well plates on top of the antibody (20 μl/well). The plates were incubated for four days at 37° C. and 5% CO2. Subsequently, 20 μl/well of CellTiter-Glo solution (CellTiter-Glo® Luminescent Cell Viability Assay; Promega, #G7571) was prepared and added to the cells. Cell viability was determined by the luminescence signal, which was measured after 10 min of incubation at 22° C. and 400 rpm with the Envision reader. IC50 values were calculated using the Graphpad Prism software.
In general terms: In ATP-based viability assays light output follows the ATP content of the culture.

A further test has as its system KE97. Described as above. Particulars: KE97 (Multiple Myeloma); CCR7 receptor levels ~100,000; Table 19. The protocol:
as §1

The next test deals with CML-T1. The test is described as above. The following applies: CML-T1 (T cell leukemia); CCR7 receptor levels ~29,000. The protocol:
as §1
(§2) To assess the ADCs for target-specificity and receptor-level dependency, ADC activity was tested across cell lines with different CCR7 receptor levels. […] Cell lines were chosen based on similar sensitivity to payload.

Another test relates to DND-41. The description is as above. The following applies: DND-41 (T cell leukemia); CCR7 receptor levels 1,700. As to the method: as §1, §2
Another test deals with SR786. Described as above. Particulars: SR786 (Anaplastic large T cell lymphoma); CCR7 receptor levels ~28,000. The protocol: as §1, §2
In test [2] the test system is CCR7 and CD20 expressing JVM2 cells. The test is described as follows: surrogate ADCC reporter assay. The following applies: JVM2 target cells and Jurkat-V158 effector cells. The protocol:
Capacity of candidate antibodies to mediate ADCC was assessed using a surrogate ADCC reporter assay. CCR7 and CD20 expressing JVM2 cells were used as target cells. JVM2 cells were washed and re-suspended at 8×10^4 cells/ml cells/ml. Effector cells in this assay were a Jurkat cell line stably expressing CD16V158 and an NFAT dependent luciferase reporter (Jurkat-V158); expression of luciferase is a surrogate for canonical ADCC signaling through CD16. Briefly, Jurkat-V158 cells grown in suspension were spun down to remove spent media, the pellet was resuspended in assay media and adjusted to 1.6x10^6 cells/ml cells/mL. Mix equal volumes of effector and target cells to make a master mix of cells yielding a target to effector cell ratio of 1:5 or 1:20. A titration of antibody was diluted in assay media with a final top concentration of 50 ug/mL in the assay well. 12.5 uL of Ab solution was added to a 384 well round bottom plate and then 12.5 ul of the master cell mix was added. Antibody and cells were mixed well by pipetting and incubated for 4 hours at 37° C. in 5% CO2. Following incubation, 15 uL of Bright Glo substrate (Promega #G7572) was added to each well and shaken for 5 min at RT at 1050 rpm. Luminescent signal was read on the Envision plate reader (Perkin Elmer).

B1: 674J13 Parental: parental anti-CCR7 antibody derived from the hybridoma (antibody, V domains shown)
VH: DVQLQESGPDLVKPSQSLSLTCTVTGYSITSGYSWHWIRQFPGNKLEWMAHIHSSGSTNYNPSLKSRISIIRDTSKNLFFLQLNSVTTEDTATYYCARGGVQAFAYWGQGTLVTVSA
VL: QIVLTQSPAIMSASPGEKVTMTCSASSSVIYMHWYQQKSGTSPKRWIYDTSKLASGVPARFSGSGSGTSYSLTISSMEAEDAATYYCQQWSSNPLTFGAGTTLELK
Regarding B1, in test [1], the “functionality in β-Arrestin assay, antagonistic format” value is given as “neutral, non-ligand blocking antibody”.

B2: 674J13.CysMab.DAPA.AURIX2 (conjugate)
heavy: DVQLQESGPGLVKPSQTLSLTCTVSGYSITSGYSWHWIRQHPGKGLEWMAHIHSSGSTNYNPSLKSRITISRDTSKNQFSLKLSSVTAADTAVYYCARGGVQAFAYWGQGTLVTVSSASTKGPSVFPLAPSSKSTSGGTAALGCLVKDYFPCPVTVSWNSGALTSGVHTFPAVLQSSGLYSLSSVVTVPSSSLGTQTYICNVNHKPSNTKVDKRVEPKSCDKTHTCPPCPAPELLGGPSVFLFPPKPKDTLMISRTPEVTCVVVAVSHEDPEVKFNWYVDGVEVHNAKTKPREEQYNSTYRVVSVLTVLHQDWLNGKEYKCKVSNKALAAPIEKTISKAKGQPREPQVYTLPPSREEMTKNQVSLTCLVKGFYPCDIAVEWESNGQPENNYKTTPPVLDSDGSFFLYSKLTVDKSRWQQGNVFSCSVMHEALHNHYTQKSLSLSPGK
light: EIVLTQSPATLSASPGERVTMSCSASSSVIYMHWYQQKPGQAPRRWIYDTSKLASGVPARFSGSGSGTDYTLTISSMEPEDAAVYYCQQWSSNPLTFGQGTKLEIKRTVAAPSVFIFPPSDEQLKSGTASVVCLLNNFYPREAKVQWKVDNALQSGNSQESVTEQDSKDSTYSLSSTLTLSKADYEKHKVYACEVTHQGLSSPVTKSFNRGEC
In the case of B2, the AMAX entry in the test on DEL is “(>95% AMAX)”; with KE97 it was “(>95% AMAX)”; with CML-T1, “(60% AMAX)”; in the test on DND-41, less than 20% AMAX; in the test on SR786, “(90% AMAX)”.

B3: 121G12 humanized CysMab: humanized anti-CCR7 IgG1 antibody with cysteine mutations, wild type Fc (antibody, V domains shown)
VH: EVQLVESGGGLVKPGGSLRLSCAASGFTFSTYAMSWVRQAPGKGLEWVATISDAGSYSYYPDNVKGRFTISRDNAKNSLYLQMNSLRAEDTAVYYCARRGSRYEEYYVMDYWGQGTTVTVSS
VL: EIVLTQSPATLSVSPGERVTLSCRASQSISNNLHWYQQKPGQAPRLLIKYASQSISGIPARFSGSGSGTDFTLTISSVEPEDFGVYFCQQSSSWLTFGQGTKLEIK
With B3, the “ADCC activity; IC50 (nM)” value in test [2] was “Yes, but insufficient curve fitting”.
